Data from paper PMC4121237, “Engineering Neprilysin Activity and Specificity to Create a Novel Therapeutic for Alzheimer’s Disease” (PLoS ONE, 2014).

Legend:
Format in all cases: biochemical
[1] = test system: Aβ1–40 or 1–42 and eight off-target peptides; assay: High-throughput fluorescence polarisation screen of NEP variants; details: high throughput screening, relative to wild-type
Description: To screen NEP variants for improved activity on and specificity towards Aβ a high-throughput assay was developed where cleavage activity on Aβ1–40 or 1–42 and eight off-target peptides (see Table S1) was determined by fluorescence polarisation. Peptide substrates were labelled with DY-505 or DY-647 at the N-terminus and biotin at the C-terminus. The biotin serves for increasing the molecular size of uncleaved peptides after addition of strepavidin, thereby increasing the assay window and measurable signals. Peptide cleavage assays were performed by incubating NEP variant samples in a microtitre plate containing assay solution composed of 60 nM peptide substrate in 50 mM HEPES (pH 7.4) containing 150 mM NaCl and 0.05% Pluronic F-68 (Sigma). […] The extent of peptide cleavage was determined by measuring the fluorescence polaristion of the stopped reactions on a plate reader (Tecan) with an appropriate set up of polarisation filters. […]
To rank these variants the change in activity on the Aβ1–40 peptide was divided by the average change in specificity on the other peptides and then by the specificity of the wild-type enzyme. […] At many other positions only a single amino acid substitution was detected as having improved specificity, and some of these provided the largest gains observed. […]

Aβ1–40 = assay: Steady-state kinetics of peptide cleavage, fluorescence polarisation; details: for Km / kcat / Fold change in kcat/KM: substrate Aβ 1–40; for Km / kcat: 37°C, pH 7.4; for Fold change in kcat/KM: ratio of wild-type NEP kcat/KM to that of the mutant; for increase in kcat/KM (catalytic efficiency) on Aβ1–40 over wild-type NEP: substrate Aβ1–40, relative to wild-type NEP
Description: (§1) For detailed kinetic characterisation of peptide cleavage by NEP, a similar assay to that above was used with modifications based on a published method. Peptides were synthesised by Bachem using 9-fluorenylmethyloxycarbonyl solid-phase peptide synthesis and were labelled with a N-terminal 5(6)FAM via a ε-aminocaproic acid linker and a C-terminal biotin via a lysine linker (Table S1). Purified peptides were supplied as trifluoroacetate salts with a purity ≥95%. The assay was performed in a 96-well microtitre plate and contained 50 mM HEPES (pH 7.4), 100 mM NaCl, 0.05% (w/v) BSA (Buffer A), 1–200 µM peptide substrate and 1–500 nM NEP protein. Reactions were incubated at 37°C before being stopped at various time points between 2 and 360 min by transferring 5 µL aliquots to 245 µL Buffer A containing 2 mM 1,10-phenanethroline (Sigma) and 2 µM avidin (Invitrogen). For peptide substrates containing disulphide bonds, 1 mM tris(2-carboxyethyl)phosphine (Thermo Scientific) was added to the stop solution. The fluorescence polarisation of the resulting solution was measured on a Victor plate reader and the amount of substrate cleaved was determined with reference to substrate-only controls with and without avidin. Initial rates were obtained by linear regression of the linear regions of time courses. Enzyme velocity was plotted as a function of substrate concentration and the Michaelis-Menten equation was used to fit the data, giving the parameters kcat and KM.

Glucagon = assay: as above; details: substrate Glucagon; for Km / kcat: 37°C, pH 7.4; for Fold change in kcat/KM: ratio of wild-type NEP kcat/KM to that of the mutant
Description: as §1

Bradykinin = assay: as above; details: substrate Bradykinin; for Km / kcat: 37°C, pH 7.4; for Fold change in kcat/KM: ratio of wild-type NEP kcat/KM to that of the mutant
Description: as §1

Angiotensin = assay: as above; details: substrate Angiotensin; for Km / kcat: 37°C, pH 7.4; for Fold change in kcat/KM: ratio of wild-type NEP kcat/KM to that of the mutant
Description: as §1

Neurotensin = assay: as above; details: substrate Neurotensin; for Km / kcat: 37°C, pH 7.4; for Fold change in kcat/KM: ratio of wild-type NEP kcat/KM to that of the mutant
Description: as §1

Row | Molecule | improvement in specificity ([1]; activity on Aβ1–40 relative to other peptides) | improvement in activity on Aβ [1] | Km (Aβ1–40) | kcat (Aβ1–40) | Fold change in kcat/KM (Aβ1–40) | increase in kcat/KM (catalytic efficiency) on Aβ1–40 over wild-type NEP (Aβ1–40) | Km (Glucagon) | kcat (Glucagon) | Fold change in kcat/KM (Glucagon) | Km (Bradykinin) | kcat (Bradykinin) | Fold change in kcat/KM (Bradykinin) | Km (Angiotensin) | kcat (Angiotensin) | Fold change in kcat/KM (Angiotensin) | Km (Neurotensin) | kcat (Neurotensin) | Fold change in kcat/KM (Neurotensin)
1 | NEP G714K: single mutant G714K of the human NEP ectodomain (protein, UniProt P08473 52-750, looked up, variant G714K, extracellular domain, single mutant G714K of the human NEP ectodomain) extracellular domain: YDDGICKSSDCIKSAARLIQNMDATTEPCTDFFKYACGGWLKRNVIPETSSRYGNFDILRDELEVVLKDVLQEPKTEDIVAVQKAKALYRSCINESAIDSRGGEPLLKLLPDIYGWPVATENWEQKYGASWTAEKAIAQLNSKYGKKVLINLFVGTDDKNSVNHVIHIDQPRLGLPSRDYYECTGIYKEACTAYVDFMISVARLIRQEERLPIDENQLALEMNKVMELEKEIANATAKPEDRNDPMLLYNKMTLAQIQNNFSLEINGKPFSWLNFTNEIMSTVNISITNEEDVVVYAPEYLTKLKPILTKYSARDLQNLMSWRFIMDLVSSLSRTYKESRNAFRKALYGTTSETATWRRCANYVNGNMENAVGRLYVEAAFAGESKHVVEDLIAQIREVFIQTLDDLTWMDAETKKRAEEKALAIKERIGYPDDIVSNDNKLNNEYLELNYKEDEYFENIIQNLKFSQSKQLKKLREKVDKDEWISGAAVVNAFYSSGRNQIVFPAGILQPPFFSAQQSNSLNYGGIGMVIGHEITHGFDDNGRNFNKDGDLVDWWTQQSASNFKEQSQCMVYQYGNFSWDLAGGQHLNGINTLGENIADNGGLGQAYRAYQNYIKKNGEEKLLPGLDLNHKQLFFLNFAQVWCGTYRPEYAVNSIKTDVHSPKNFRIIGTLQNSAEFSEAFHCRKNSYMNPEKKCRVW | approximately 12 fold | ~7 fold | 42 ± 0.7 µM | 1.9 ± 0.2 s⁻¹ | 0.18 | ~6 fold | 42 ± 5 µM | 5.2 ± 0.3 s⁻¹ | 1.5 | 120 ± 8 µM | 7.4 ± 0.3 s⁻¹ | 7.5 | 18 ± 1 µM | 12 ± 0.3 s⁻¹ | 1.5 | 10 ± 0.7 µM | 8.6 ± 0.2 s⁻¹ | 0.98
2 | NEP G399V: single mutant G399V of the human NEP ectodomain (protein, UniProt P08473 52-750, looked up, variant G399V, extracellular domain, single mutant G399V of the human NEP ectodomain) extracellular domain: YDDGICKSSDCIKSAARLIQNMDATTEPCTDFFKYACGGWLKRNVIPETSSRYGNFDILRDELEVVLKDVLQEPKTEDIVAVQKAKALYRSCINESAIDSRGGEPLLKLLPDIYGWPVATENWEQKYGASWTAEKAIAQLNSKYGKKVLINLFVGTDDKNSVNHVIHIDQPRLGLPSRDYYECTGIYKEACTAYVDFMISVARLIRQEERLPIDENQLALEMNKVMELEKEIANATAKPEDRNDPMLLYNKMTLAQIQNNFSLEINGKPFSWLNFTNEIMSTVNISITNEEDVVVYAPEYLTKLKPILTKYSARDLQNLMSWRFIMDLVSSLSRTYKESRNAFRKALYVTTSETATWRRCANYVNGNMENAVGRLYVEAAFAGESKHVVEDLIAQIREVFIQTLDDLTWMDAETKKRAEEKALAIKERIGYPDDIVSNDNKLNNEYLELNYKEDEYFENIIQNLKFSQSKQLKKLREKVDKDEWISGAAVVNAFYSSGRNQIVFPAGILQPPFFSAQQSNSLNYGGIGMVIGHEITHGFDDNGRNFNKDGDLVDWWTQQSASNFKEQSQCMVYQYGNFSWDLAGGQHLNGINTLGENIADNGGLGQAYRAYQNYIKKNGEEKLLPGLDLNHKQLFFLNFAQVWCGTYRPEYAVNSIKTDVHSPGNFRIIGTLQNSAEFSEAFHCRKNSYMNPEKKCRVW | – | – | 55 ± 7 µM | 2.7 ± 0.2 s⁻¹ | 0.16 | ~6 fold | 20 ± 2 µM | 2.9 ± 0.1 s⁻¹ | 1.2 | 79 ± 10 µM | 0.15 ± 0.01 s⁻¹ | 250 | 3.6 ± 0.4 µM | 0.73 ± 0.03 s⁻¹ | 4.6 | 12 ± 1 µM | 1.1 ± 0.04 s⁻¹ | 8.2
